Common to all, as to experiment: EMSA
In general terms: Mobility shift assays separate free from complexed probe on a gel.

The target of data set [1] is hMSH4 (hMutSγ subunit);hMSH5 (hMutSγ subunit) (Homo sapiens;Homo sapiens, UniProt O15457;O43196 1-936;1-834, |).
In data set [2] the target is T1, hMLH1 (hMutLγ subunit);hMLH3 (hMutLγ subunit) (Homo sapiens;Homo sapiens, UniProt P40692;Q9UHC1 1-756;1-1453, |).
Data set [3] addresses T1, hMLH1 (hMutLγ subunit);hMLH3 (hMutLγ …). The source holds these as a separate data set.
For data set [4] the target is unchanged. The source holds these as a separate data set.

Read-outs that look alike come from different tables or passages of the source.

B1: HJ (Holliday junction) (structured_DNA)
DNA 1: CTAGTATAGAGCCGGCGCGCCATGTCTAGATAGCGTTAGGTCTGCCGAATAGTACTACTCGGATCCCGAGCGAACCACGC
DNA 2: GCGTGGTTCGCTCGGGATCCGAGTAGTACTATTCGGCAGAGGATTCGAATAGGCCTAATCGAATTCCGCCATCGATGCAC
DNA 3: GTGCATCGATGGCGGAATTCGATTAGGCCTATTCGAATCCAGACGCGAGTAGATCTTCACGGTACCCGCGGTTACCCGTG
DNA 4: CACGGGTAACCGCGGGTACCGTGAAGATCTACTCGCGTCTCCTAACGCTATCTAGACATGGCGCGCCGGCTCTATACTAG
Broadly, the Kd is the concentration at which binding is half-saturated. Read a low Kd as a tighter complex. Take B1: the binding result in data set [1] is reported as “binds”. Moreover, in data set [2], the dissociation constant Kd was approximately 0.038 µM.

B2: 80mer with 10 nt gap (mixed)
DNA 1: B1 DNA 1
DNA 2: GCGTGGTTCGCTCGGGATCCGAGTAGTACTATTCG
DNA 3: CGCTATCTAGACATGGCGCGCCGGCTCTATACTAG
In the case of B2, in data set [3], the binding result is “no binding”.

B3: 80mer with 20 nt gap (mixed)
DNA 1: B1 DNA 1
DNA 2: GCGTGGTTCGCTCGGGATCCGAGTAGTACT
DNA 3: TCTAGACATGGCGCGCCGGCTCTATACTAG
As to B3, the binding result in data set [3] is recorded as “binds”.

B4: 80mer with 5 nt gap (mixed)
DNA 1: B1 DNA 1
DNA 2: GCGTGGTTCGCTCGGGATCCGAGTAGTACTATTCGG
DNA 3: CTAACGCTATCTAGACATGGCGCGCCGGCTCTATACTAG
On to B4, for which the binding result in data set [3] was “no binding”.

B5: 80mer with 40 nt gap (mixed)
DNA 1: B1 DNA 1
DNA 2: GCGTGGTTCGCTCGGGATCC
DNA 3: GCGCGCCGGCTCTATACTAG
Consider B5, for which the binding result in data set [4] is recorded as “binds”.

B6: gHJ (gapped HJ) (structured_DNA)
DNA 1: B1 DNA 1
DNA 2: B1 DNA 2
DNA 3: B1 DNA 3
DNA 4: CACGGGTAACCGCGGGTACCGTGAAGATCTACTCGCGTCTCCTAA
DNA 5: CCGGCTCTATACTAG
With B6, in data set [2], the Kd was approximately 0.016 µM.

The record behind these values is PMC8284803.
